Numbering of substitutions follows the chain as printed.
Key:
Experiment in all cases: SPR
DnaC R216A = target: T1, DnaC R216A (Escherichia coli, UniProt P0AEF0 1-245, R216A)
T1 sequence: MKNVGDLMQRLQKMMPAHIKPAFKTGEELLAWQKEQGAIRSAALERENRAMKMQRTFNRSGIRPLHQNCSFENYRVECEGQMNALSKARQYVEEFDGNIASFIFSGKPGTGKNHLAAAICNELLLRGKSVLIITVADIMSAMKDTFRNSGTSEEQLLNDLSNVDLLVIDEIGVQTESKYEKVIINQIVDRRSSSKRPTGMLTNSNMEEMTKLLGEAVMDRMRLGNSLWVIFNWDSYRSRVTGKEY

DnaC R220A = target: T2, DnaC R220A (Escherichia coli, UniProt P0AEF0 1-245, R220A)
T2 sequence: T1 sequence with A216R, R220A

DnaC = target: T3, DnaC (Escherichia coli, UniProt P0AEF0 1-245)
T3 sequence: T1 sequence with A216R

B1: 5'-biotinylated oligonucleotide (ssDNA)
DNA: CATCCAATAAATCATACACAAGGC
DnaC R216A
  binding result: binds
DnaC R220A
  binding signal: 1.7 fold stronger than without ATP
DnaC
  binding signal: ~2.4 fold stronger than without ATP

Source: PMC2819048
